Laboratory results taken from publication PMC7283332, “convertibleCARs: A chimeric antigen receptor system for flexible control of activity and antigen targeting” (Communications Biology, 2020).

Target: T1, ULBP2 α1α2 domain, C-terminal 6×-His (human, UniProt Q9BZM5 29-212)
T1 construct: ULBP2, human, α1α2 domains, UniProtKB Q9BZM5 residues 29-212; monomeric protein; also called wild-type ULBP2; MIC-His ligand; source: Expi293 supernatant, purified (Ni-NTA); not shown: His6, C-terminal, kept
T1 sequence (looked up): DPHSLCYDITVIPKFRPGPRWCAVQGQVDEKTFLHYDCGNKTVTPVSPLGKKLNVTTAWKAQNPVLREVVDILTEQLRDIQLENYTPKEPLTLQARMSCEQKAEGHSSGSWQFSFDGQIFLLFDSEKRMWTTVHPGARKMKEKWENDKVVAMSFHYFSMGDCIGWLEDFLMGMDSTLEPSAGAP
Test: BLI; FortéBio Octet; Fc-wtNKG2D, Fc-iNKG2D.YA or Fc-iNKG2D.AF captured on anti-human IgG Fc capture (AHC) biosensor tips; titration series of monomeric MIC-His ligands or monomeric ULBP2 variants
Settings: both partners purified

binding result: binds
B1: Fc-wtNKG2D (Fc fusion, human, UniProt P26718 78-216, looked up)
chain: FLNSLFNQEVQIPLTESYCGPCPKNWICYKNNCYQFFDESKNWYESQASCMSQNASLLKVYSKEDQDLLKLVKSYHWMGLVHIPTNGSWQWEDGSILSPNLLTIIEMQKGDCALYASSFKGYIENCSTPNTYICMQRTV
notes: NKG2D wild-type ectodomain, human, UniProtKB P26718 residues 78-216; NKG2D is fused to the C-terminus of the Fc through a factor Xa site linker Ile-Glu-Gly-Arg (IEGR); also called wild-type NKG2D; source: Expi293 cells, secreted, purified (Protein A, SEC); not shown: Fc (human IgG1), N-terminal, kept
